# Experimental data as given in US20180141972.
# Assays:
# [1] = target: Spycatcher-WELQ-Tem1 fusion protein (Spycatcher followed by a SplB protease site with a P1' methionine and the lactamase Tem1) (UniProt P62593)
# [2] = system: Spycatcher-WELQ-LSSmOrange fusion protein
substance,measurement,setting,value
SplB protease fused to Spytag,"cleavage of the fusion protein to native Tem1 (gel, FIG. 3)",[1],this led to the cleavage of Tem1 at the first methionine
same,"cleavage of the fusion protein to native LSSmOrange (gel, FIG. 4)",[2],A similar experiment with LSSmOrange replacing Tem1 yielded the same result
